Results published in article PMC5519978, “DNA binding drives the association of BRG1/hBRM bromodomains with nucleosomes”.

Key:
hBRM-A AT-BRD = hBRM-A AT-BRD (human, UniProt P51531 1358-1508); test: NMR titration; 1:1 stoichiometric; FA and NMR: 50 mM K phosphate pH 7.0, 50 mM KCl, 0.5 mM EDTA, 1 mM DTT (NMR +10% D2O), 20 C (BRG1 NMR 25 C); EMSA: 150 nM DNA/NCP, 10 mM K phosphate, 10 mM KCl, on ice, 0.2x TBE gel; conditions: protein: recombinant; tags: pDEST15 (GST) with PreScission site; blunt
BRG1 AT-BRD [1] = molecular target: T1, BRG1 AT-BRD (human, UniProt P51532 1434-1569); test: fluorescence anisotropy; FA and NMR: 50 mM K phosphate pH 7.0, 50 mM KCl, 0.5 mM EDTA, 1 mM DTT (NMR +10% D2O), 20 C (BRG1 NMR 25 C); EMSA: 150 nM DNA/NCP, 10 mM K phosphate, 10 mM KCl, on ice, 0.2x TBE gel; conditions: protein: recombinant; tags: pDEST15 or pGEX6p1 (GST); label: 5' 6-FAM on strand 1; blunt
T1 sequence (P51532 1434-1569): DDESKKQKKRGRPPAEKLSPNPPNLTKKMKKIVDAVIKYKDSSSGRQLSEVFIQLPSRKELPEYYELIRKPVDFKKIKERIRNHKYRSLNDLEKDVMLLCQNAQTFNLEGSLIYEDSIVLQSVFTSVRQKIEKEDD

BRG1 AT-BRD [2] = molecular target: T1, BRG1 AT-BRD; test: NMR titration; 25 C; FA and NMR: 50 mM K phosphate pH 7.0, 50 mM KCl, 0.5 mM EDTA, 1 mM DTT (NMR +10% D2O), 20 C (BRG1 NMR 25 C); EMSA: 150 nM DNA/NCP, 10 mM K phosphate, 10 mM KCl, on ice, 0.2x TBE gel; conditions: protein: recombinant; tags: pDEST15 or pGEX6p1 (GST); blunt

Chain of hBRM-A AT-BRD (P51531 1358-1508): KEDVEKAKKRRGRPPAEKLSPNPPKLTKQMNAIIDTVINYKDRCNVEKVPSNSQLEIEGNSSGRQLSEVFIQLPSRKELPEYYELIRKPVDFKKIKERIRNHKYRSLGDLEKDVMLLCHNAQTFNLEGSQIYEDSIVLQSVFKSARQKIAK

| Binder | binding result (hBRM-A AT-BRD) | Kd (BRG1 AT-BRD [1]) [µM] | binding result (BRG1 AT-BRD [2]) |
| --- | --- | --- | --- |
| DNAIII (dsDNA) DNA 1: CCTCAATTGGTCGTAG DNA 2: CTACGACCAATTGAGG | binds | – | – |
| DNAII.FA (dsDNA) DNA 1: CGTAGACAGCTC DNA 2: GAGCTGTCTACG | – | 40 ± 10 | – |
| DNAII (dsDNA) DNA 1: CGTAGACAGCT DNA 2: AGCTGTCTACG | – | – | binds |
| DNAI (dsDNA) DNA 1: CTCAATTGGT DNA 2: ACCAATTGAG | binds | – | binds |
| DNAI.FA (dsDNA) DNA 1: CCTCAATTGGTC DNA 2: GACCAATTGAGG | – | 16 ± 2 | – |
